Like-named read-outs stand apart in the source and are kept apart here.
Legend:
[1] = target: T1, Ac-LSSR-AMC
T1 chain: LSSR

[2] = target: T2, Z-LSSR-CHO
T2 chain: LSSR

[3] = target: T3, Arabidopsis thaliana serpin (AT1g47710), Q9S7T8
T3 chain: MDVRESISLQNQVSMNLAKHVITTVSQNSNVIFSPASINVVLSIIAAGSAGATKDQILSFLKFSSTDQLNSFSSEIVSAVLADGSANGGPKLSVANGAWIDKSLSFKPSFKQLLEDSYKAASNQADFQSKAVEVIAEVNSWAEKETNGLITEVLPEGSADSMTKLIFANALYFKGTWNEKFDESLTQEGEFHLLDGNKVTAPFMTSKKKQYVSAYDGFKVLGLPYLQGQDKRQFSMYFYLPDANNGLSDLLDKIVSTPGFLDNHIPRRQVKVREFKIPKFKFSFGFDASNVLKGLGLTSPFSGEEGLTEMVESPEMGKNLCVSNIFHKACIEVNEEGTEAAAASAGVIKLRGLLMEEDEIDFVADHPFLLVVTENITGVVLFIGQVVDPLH

[4] = target: T4, Arabidopsis thaliana serpin, IKLA-mutant, Q9S7T8
T4 chain: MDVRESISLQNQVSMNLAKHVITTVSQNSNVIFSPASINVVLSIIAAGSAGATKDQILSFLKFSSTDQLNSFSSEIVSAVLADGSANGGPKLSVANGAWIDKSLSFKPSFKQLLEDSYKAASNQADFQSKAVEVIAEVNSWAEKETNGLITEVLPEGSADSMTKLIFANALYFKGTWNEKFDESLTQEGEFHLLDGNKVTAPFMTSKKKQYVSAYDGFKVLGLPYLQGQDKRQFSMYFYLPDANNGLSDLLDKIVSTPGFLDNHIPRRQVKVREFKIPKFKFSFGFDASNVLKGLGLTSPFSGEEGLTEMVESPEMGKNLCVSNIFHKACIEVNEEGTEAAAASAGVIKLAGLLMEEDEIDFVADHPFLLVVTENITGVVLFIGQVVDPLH

[5] = tested on: T5, Ac-LSSR-AMC; remark: listed apart in the source
T5 sequence: LSSR

[6] = target: T6, [35S]methionine-labeled human A20 (in vitro translated) (UniProt P21580)
T6 sequence: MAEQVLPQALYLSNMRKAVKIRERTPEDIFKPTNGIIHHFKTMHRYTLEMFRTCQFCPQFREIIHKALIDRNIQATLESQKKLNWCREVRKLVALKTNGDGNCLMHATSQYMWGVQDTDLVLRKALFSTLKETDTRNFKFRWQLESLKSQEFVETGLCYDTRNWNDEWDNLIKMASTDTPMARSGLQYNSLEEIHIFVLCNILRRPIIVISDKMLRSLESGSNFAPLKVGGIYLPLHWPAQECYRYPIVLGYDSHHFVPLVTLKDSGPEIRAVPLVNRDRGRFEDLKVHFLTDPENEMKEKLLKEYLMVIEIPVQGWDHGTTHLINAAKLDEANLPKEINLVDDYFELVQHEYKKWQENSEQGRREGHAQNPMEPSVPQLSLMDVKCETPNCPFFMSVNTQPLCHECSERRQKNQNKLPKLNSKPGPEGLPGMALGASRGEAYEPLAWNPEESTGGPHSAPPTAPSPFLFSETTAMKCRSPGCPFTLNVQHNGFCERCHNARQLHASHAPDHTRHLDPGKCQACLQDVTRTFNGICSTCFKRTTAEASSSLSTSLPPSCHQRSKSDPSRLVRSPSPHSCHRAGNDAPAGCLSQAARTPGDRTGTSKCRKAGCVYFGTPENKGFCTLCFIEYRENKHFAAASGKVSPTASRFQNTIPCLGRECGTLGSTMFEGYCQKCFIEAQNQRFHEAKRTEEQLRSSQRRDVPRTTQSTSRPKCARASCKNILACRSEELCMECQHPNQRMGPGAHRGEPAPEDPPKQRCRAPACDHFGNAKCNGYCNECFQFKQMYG

B1: MALT1 (wild type, Flag- and Avi-tagged bio-construct) (protein)
chain: MSLLGDPLQALPPSAAPTGPLLAPPAGATLNRLREPLLRRLSELLDQAPEGRGWRRLAELAGSRGRLRLSCLDLEQCSLKVLEPEGSPSLCLLKLMGEKGCTVTELSDFLQAMEHTEVLQLLSPPGIKITVNPESKAVLAGQFVKLCCRATGHPFVQYQWFKMNKEIPNGNTSELIFNAVHVKDAGFYVCRVNNNFTFEFSQWSQLDVCDIPESFQRSVDGVSESKLQICVEPTSQKLMPGSTLVLQCVAVGSPIPHYQWFKNELPLTHETKKLYMVPYVDLEHQGTYWCHVYNDRDSQDSKKVEIIIGRTDEAVECTEDELNNLGHPDNKEQTTDQPLAKDKVALLIGNMNYREHPKLKAPLVDVYELTNLLRQLDFKVVSLLDLTEYEMRNAVDEFLLLLDKGVYGLLYYAGHGYENFGNSFMVPVDAPNPYRSENCLCVQNILKLMQEKETGLNVFLLDMCRKRNDYDDTIPILDALKVTANIVFGYATCQGAEAFEIQHSGLANGIFMKFLKDRLLEDKKITVLLDEVAEDMGKCHLTKGKQALEIRSSLSEKRALTDPIQGTEYSAESLVRNLQWAKAHELPESMCLKFDCGVQIQLGFAAEFSNVMIIYTSIVYKPPEIIMCDAYVTDFPLDLDIDPKDANKGTPEETGSYLVSKDLPKHCLYTRLSSLQKLKEHLVFTVCLSYQYSGLEDTVEDKQEVNVGKPLIAKLDMHRGLGRKTCFQTCLMSNGPYQSSAATSGGAGHYHSLQDPFHGVYHSHPGNPSNVTPADSCHCSRTPDAFISSFAHHASCHFSRSNVPVETTDEIPFSFSDRLRISEK
[1]
  cleavage of Ac-LSSR-AMC in vitro (fluorescence release): bio-IP purified MALT1 was indeed able to cleave Ac-LSSR-AMC (see SEQ ID NO:1) in vitro
[2]
  Ac-LSSR-AMC cleavage by bio-IP purified MALT1 (fluorescence release): Substrate cleavage by MALT1 was efficiently blocked by a Z-LSSR-CHO (see SEQ ID NO:1) and a Z-GASR-CHO (see SEQ ID NO:2) inhibitor at equimolar concentrations

B2: MALT1 as used in the paracaspase assay of Example 10 (protein)
chain: MSLLGDPLQALPPSAAPTGPLLAPPAGATLNRLREPLLRRLSELLDQAPEGRGWRRLAELAGSRGRLRLSCLDLEQCSLKVLEPEGSPSLCLLKLMGEKGCTVTELSDFLQAMEHTEVLQLLSPPGIKITVNPESKAVLAGQFVKLCCRATGHPFVQYQWFKMNKEIPNGNTSELIFNAVHVKDAGFYVCRVNNNFTFEFSQWSQLDVCDIPESFQRSVDGVSESKLQICVEPTSQKLMPGSTLVLQCVAVGSPIPHYQWFKNELPLTHETKKLYMVPYVDLEHQGTYWCHVYNDRDSQDSKKVEIIIGRTDEAVECTEDELNNLGHPDNKEQTTDQPLAKDKVALLIGNMNYREHPKLKAPLVDVYELTNLLRQLDFKVVSLLDLTEYEMRNAVDEFLLLLDKGVYGLLYYAGHGYENFGNSFMVPVDAPNPYRSENCLCVQNILKLMQEKETGLNVFLLDMCRKRNDYDDTIPILDALKVTANIVFGYATCQGAEAFEIQHSGLANGIFMKFLKDRLLEDKKITVLLDEVAEDMGKCHLTKGKQALEIRSSLSEKRALTDPIQGTEYSAESLVRNLQWAKAHELPESMCLKFDCGVQIQLGFAAEFSNVMIIYTSIVYKPPEIIMCDAYVTDFPLDLDIDPKDANKGTPEETGSYLVSKDLPKHCLYTRLSSLQKLKEHLVFTVCLSYQYSGLEDTVEDKQEVNVGKPLIAKLDMHRGLGRKTCFQTCLMSNGPYQSSAATSGGAGHYHSLQDPFHGVYHSHPGNPSNVTPADSCHCSRTPDAFISSFAHHASCHFSRSNVPVETTDEIPFSFSDRLRISEK
[3]
  paracaspase assay (MALT1 proteolytic activity): Inhibition of the MALT1 paracaspase activity is possible, but only at relatively high concentrations of serpin
[4]
  paracaspase assay (MALT1 proteolytic activity): the IKLA-mutant (SEQ ID NO:16), which is inactive versus plant metacaspase (Vercammen et al., 2006) is performing better than wild type serpin at higher concentrations

B3: MALT1-C464A (bio-tagged) (protein)
chain: MSLLGDPLQALPPSAAPTGPLLAPPAGATLNRLREPLLRRLSELLDQAPEGRGWRRLAELAGSRGRLRLSCLDLEQCSLKVLEPEGSPSLCLLKLMGEKGCTVTELSDFLQAMEHTEVLQLLSPPGIKITVNPESKAVLAGQFVKLCCRATGHPFVQYQWFKMNKEIPNGNTSELIFNAVHVKDAGFYVCRVNNNFTFEFSQWSQLDVCDIPESFQRSVDGVSESKLQICVEPTSQKLMPGSTLVLQCVAVGSPIPHYQWFKNELPLTHETKKLYMVPYVDLEHQGTYWCHVYNDRDSQDSKKVEIIIGRTDEAVECTEDELNNLGHPDNKEQTTDQPLAKDKVALLIGNMNYREHPKLKAPLVDVYELTNLLRQLDFKVVSLLDLTEYEMRNAVDEFLLLLDKGVYGLLYYAGHGYENFGNSFMVPVDAPNPYRSENCLCVQNILKLMQEKETGLNVFLLDMARKRNDYDDTIPILDALKVTANIVFGYATCQGAEAFEIQHSGLANGIFMKFLKDRLLEDKKITVLLDEVAEDMGKCHLTKGKQALEIRSSLSEKRALTDPIQGTEYSAESLVRNLQWAKAHELPESMCLKFDCGVQIQLGFAAEFSNVMIIYTSIVYKPPEIIMCDAYVTDFPLDLDIDPKDANKGTPEETGSYLVSKDLPKHCLYTRLSSLQKLKEHLVFTVCLSYQYSGLEDTVEDKQEVNVGKPLIAKLDMHRGLGRKTCFQTCLMSNGPYQSSAATSGGAGHYHSLQDPFHGVYHSHPGNPSNVTPADSCHCSRTPDAFISSFAHHASCHFSRSNVPVETTDEIPFSFSDRLRISEK
[1]
  cleavage of Ac-LSSR-AMC in vitro (fluorescence release): whereas bio-1P purified C464 mutant was not

B4: MALT1-R149A (bio-tagged) (protein)
chain: MSLLGDPLQALPPSAAPTGPLLAPPAGATLNRLREPLLRRLSELLDQAPEGRGWRRLAELAGSRGRLRLSCLDLEQCSLKVLEPEGSPSLCLLKLMGEKGCTVTELSDFLQAMEHTEVLQLLSPPGIKITVNPESKAVLAGQFVKLCCAATGHPFVQYQWFKMNKEIPNGNTSELIFNAVHVKDAGFYVCRVNNNFTFEFSQWSQLDVCDIPESFQRSVDGVSESKLQICVEPTSQKLMPGSTLVLQCVAVGSPIPHYQWFKNELPLTHETKKLYMVPYVDLEHQGTYWCHVYNDRDSQDSKKVEIIIGRTDEAVECTEDELNNLGHPDNKEQTTDQPLAKDKVALLIGNMNYREHPKLKAPLVDVYELTNLLRQLDFKVVSLLDLTEYEMRNAVDEFLLLLDKGVYGLLYYAGHGYENFGNSFMVPVDAPNPYRSENCLCVQNILKLMQEKETGLNVFLLDMCRKRNDYDDTIPILDALKVTANIVFGYATCQGAEAFEIQHSGLANGIFMKFLKDRLLEDKKITVLLDEVAEDMGKCHLTKGKQALEIRSSLSEKRALTDPIQGTEYSAESLVRNLQWAKAHELPESMCLKFDCGVQIQLGFAAEFSNVMIIYTSIVYKPPEIIMCDAYVTDFPLDLDIDPKDANKGTPEETGSYLVSKDLPKHCLYTRLSSLQKLKEHLVFTVCLSYQYSGLEDTVEDKQEVNVGKPLIAKLDMHRGLGRKTCFQTCLMSNGPYQSSAATSGGAGHYHSLQDPFHGVYHSHPGNPSNVTPADSCHCSRTPDAFISSFAHHASCHFSRSNVPVETTDEIPFSFSDRLRISEK
[1]
  cleavage of Ac-LSSR-AMC in vitro (fluorescence release): the R149A mutant was as efficient in substrate processing as MALT1

B5: MALT1C-gyraseB-C464A (enzyme, part only; not given: gyrase B fragment)
chain, part: TTDQPLAKDKVALLIGNMNYREHPKLKAPLVDVYELTNLLRQLDFKVVSLLDLTEYEMRNAVDEFLLLLDKGVYGLLYYAGHGYENFGNSFMVPVDAPNPYRSENCLCVQNILKLMQEKETGLNVFLLDMARKRNDYDDTIPILDALKVTANIVFGYATCQGAEAFEIQHSGLANGIFMKFLKDRLLEDKKITVLLDEVAEDMGKCHLTKGKQALEIRSSLSEKRALTDPIQGTEYSAESLVRNLQWAKAHELPESMCLKFDCGVQIQLGFAAEFSNVMIIYTSIVYKPPEIIMCDAYVTDFPLDLDIDPKDANKGTPEETGSYLVSKDLPKHCLYTRLSSLQKLKEHLVFTVCLSYQYSGLEDTVEDKQEVNVGKPLIAKLDMHRGLGRKTCFQTCLMSNGPYQSSAATSGGAGHYHSLQDPFHGVYHSHPGNPSNVTPADSCHCSRTPDAFISSFAHHASCHFSRSNVPVETTDEIPFSFSDRLRISEK
[5]
  cleavage of Ac-LSSR-AMC in vitro (fluorescence release): the recombinant C464A mutant failed to do so, although its higher concentration
[6]
  in vitro cleavage of radiolabeled A20 (SDS-PAGE, autoradiography; 500, 1000 or 1500 nM enzyme): incubation of A20 with the catalytically inactive MALT1C-gyraseB-C464A mutant protein did not result in A20 cleavage
